The test concerns the target CaMKII. Description: cell-based or functional assay.

This is an account of results in US20170368136A1 (REGENTS OF THE UNIVERSITY OF COLORADO A BODY CORPORATE, published 2017).

CaMKII, sequence (chain, from a related filing, as listed by the source): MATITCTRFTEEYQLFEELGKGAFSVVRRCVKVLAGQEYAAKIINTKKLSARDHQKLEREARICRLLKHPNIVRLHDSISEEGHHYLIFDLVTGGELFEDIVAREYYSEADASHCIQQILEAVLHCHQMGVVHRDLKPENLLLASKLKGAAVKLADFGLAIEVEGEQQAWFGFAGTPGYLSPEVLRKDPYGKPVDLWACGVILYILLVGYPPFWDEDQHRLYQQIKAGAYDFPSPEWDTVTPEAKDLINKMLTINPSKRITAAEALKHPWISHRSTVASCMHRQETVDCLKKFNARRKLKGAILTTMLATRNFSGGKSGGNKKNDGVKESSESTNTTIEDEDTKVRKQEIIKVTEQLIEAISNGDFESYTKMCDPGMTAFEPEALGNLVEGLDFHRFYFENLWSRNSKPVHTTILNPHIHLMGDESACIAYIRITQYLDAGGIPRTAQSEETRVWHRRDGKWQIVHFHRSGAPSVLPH

Turning to KRAPKLGQIGRQKAVDIED [CN19o], the “IC50 of CaMKII inhibition (CaMKII activity assay, 0.1 nM CaMKII)” value was roughly 0.75 nM and the “fold potency of CaMKII inhibition against CN19” value is greater than 125 fold.
In the case of KRAPKLGQIGRVKAVVIED [CN19a2v], the “IC50 of CaMKII inhibition (syntide 2)” value was roughly 20 nM and the “fold potency of CaMKII inhibition against CN19” value was roughly 5 fold.
Consider KRPPKLGQIGRSKAVVIED [CN19 R14A], for which the “fold increase of potency of CaMKII inhibition against CN19 wild type” value was greater than 10 fold.
As for KRPPKLGQIGRSKRVVIED [CN19], the “IC50, phosphorylation of syntide 2 by CaMKII” value is roughly 100 nM.
In the case of KRAPKLGQIGRQKAVVIED [CN19a2v V12Q], the “IC50 of CaMKII inhibition” value was roughly 1 nM.
Consider KRAPKLGQIGRVKAVDIED [CN19a2v V16D], for which the “IC50 of CaMKII inhibition” value was roughly 1 nM.
Regarding KRPPKLGQIGASKRVVIED [CN19 R11A], the “fold reduction of potency of CaMKII inhibition against CN19” value was greater than 3 fold.
In the case of KRPPKLGQIGRSKRVVIEDD [CN20], the “IC50, phosphorylation of syntide 2 by CaMKII” value was roughly 100 nM.
As to KRPPKLGQIGRAKRVVIED [CN19 S12A], the “fold decrease of potency of CaMKII inhibition against CN19” value was greater than 3 fold.
